{
  "source": "IntAct's records for PubMed 18045938",
  "parents": {"B1": {"name": "Envelope glycoprotein B (Human herpesvirus 8), F5HB81 (parent)", "chain": "MTPRSRLATLGTVILLVCFCAGAAHSRGDTFQTSSSPTPPGSSSKAPTKPGEEASGPKSVDFYQFRVCSASITGELFRFNLEQTCPDTKDKYHQEGILLVYKKNIVPHIFKVRRYRKIATSVTVYRGLTESAITNKYELPRPVPLYEISHMDSTYQCFSSMKVNVNGVENTFTDRDDVNTTVFLQPVEGLTDNIQRYFSQPVIYAEPGWFPGIYRVRTTVNCEIVDMIARSAEPYNYFVTSLGDTVEVSPFCYNESSCSTTPSNKNGLSVQVVLNHTVVTYSDRGTSPTPQNRIFVETGAYTLSWASESKTTAVCPLALWKTFPRSIQTTHEDSFHFVANEITATFTAPLTPVANFTDTYSCLTSDINTTLNASKAKLASTHVPNGTVQYFHTTGGLYLVWQPMSAINLTHAQGDSGNPTSSPPPSASPMTTSASRRKRRSASTAAAGGGGSTDNLSYTQLQFAYDKLRDGINQVLEELSRAWCREQVRDNLMWYELSKINPTSVMTAIYGRPVSAKFVGDAISVTECINVDQSSVNIHKSLRTNSKDVCYARPLVTFKFLNSSNLFTGQLGARNEIILTNNQVETCKDTCEHYFITRNETLVYKDYAYLRTINTTDISTLNTFIALNLSFIQNIDFKAIELYSSAEKRLASSVFDLETMFREYNYYTHRLAGLREDLDNTIDMNKERFVRDLSEIVADLGGIGKTVVNVASSVVTLCGSLVTGFINFIKHPLGGMLMIIIVIAIILIIFMLSRRTNTIAQAPVKMIYPDVDRRAPPSGGAPTREEIKNILLGMHQLQQEERQKADDLKKSTPSVFQRTANGLRQRLRGYKPLTQSLDISPETGE"}},
  "data": [
    {"variants_of": "B1", "conditions": "with itb3_human ITGB3, P05106", "values": [
      {"variant": "D29E", "effect of a mutation on the interaction": "disrupting interaction"}
    ]}
  ]
}
